Data taken from paper PMC7385176, “Engineering a disulfide-gated switch in streptavidin enables reversible binding without sacrificing binding affinity” (Scientific Reports, 2020).
Read-outs that look alike come from different tables or passages of the source.

Key:
[1] = Thermostability assay (heating in SDS, SDS-PAGE of tetramer); format: physicochemical; conditions: for denaturation of the tetramer: presence of biotin
Method: To assess thermostability, SDS was added to 2% to wild-type or previously oxidized M88 or M112 and was incubated in the presence or absence of 5 mM biotin and in the presence and absence of 200 mM β-mercaptoethanol for 15 min. The samples were heated at 75 or 95 °C for 1 h and aliquots taken every 5 min for the first 30 min, and then at 45 and 60 min. Samples from each time point were run on a 12% SDS-PAGE gel, which were than stained with Coomassie blue. Band intensity was quantified using ImageJ software and the fraction of protein that remained tetrameric was determined relative to time zero. The band intensities for a series of standards was determined to indicate the linear range for quantification.

[2] = Biotin-4-fluorescein on-rate assay; format: binding; conditions: 25 °C
Method: Association kinetics were also monitored by utilizing B4F. […] 20 μL streptavidin was added and measurements were started immediately on a Horiba FluoroMax-4 spectrofluorometer with 490 nm excitation/525 nm emission and 2 and 15 nm slit widths, respectively, for the monochromator. Protein concentrations used were: 0.4, 0.8, 1.6, 2.4, 3.2 nM for wt; 0.8, 1.6, 3.2, 6.4 nM for oxidized M112; 0.4, 0.8, 1.6, 3.2 nM for reduced M112; 0.77, 1.5, 3.1, 6.1 nM for reduced M88 and 6.25, 12.5, 25, 50 nM for traptavidin. For oxidized M88, measurements were done in 60 μL total volume using 10 nM B4F and 50, 100, 200 and 400 nM M88.

[3] = Biotin-4-fluorescein off-rate assay (competitive, fluorescence quenching; Arrhenius extrapolation)
Method: Dissociation kinetics were measured with a competitive assay exploiting the fluorescence quenching of B4F upon binding to streptavidin[13],[30]. In a total volume of 200 μL, 50 nM streptavidin, 10 nM B4F (Invitrogen), 50 mM NaCl, 1 mM EDTA, 20 mM Tris pH 8, were incubated for 30 min. Biotin was added to 0.1 mM to prevent B4F re-association and fluorescence was monitored using a Tecan Infinite M200 plate reader with 485 nm excitation/525 nm emission for 12 h at 25 °C. The maximum, with all B4F unbound, and minimum, with all B4F bound, fluorescence was determined with similar mixtures in the absence of either streptavidin or biotin, respectively, and the fraction of B4F released at each time point was calculated as %B4FReleased=response-min/max-min×100% . […] The rapid phase was ignored and off-rate constants were determined by nonlinear least squares fitting of the data to the single exponential function y=1-e^kt .
High-temperature kinetics were measured by the same competitive assay but instead using a Horiba Jobin–Yvon FluoroMax-4 spectrofluorometer. To limit evaporation and condensation within the cuvette, it was filled to the top with 4 mL of solution using the same concentrations of reagents as above. Fluorescence was initially measured without streptavidin, giving the maximum, unquenched signal. Streptavidin was then added and allowed to equilibrate until a constant fluorescent signal was achieved, and unlabelled biotin was added to start the experiment. At these higher temperatures, the rapid release phase was more apparent and accounted for by fitting the data to the double exponential function y=max-ae^-kat-be^-kbt. The linear Arrhenius plot was generated by plotting ln(koff) against 1/temperature. A linear least squares fit to the function lnkoff=lnA-Ea/RT was used to extrapolate the dissociation constant at lower temperatures.

[4] = Rate of disulfide bond formation (Alexa Fluor 633 maleimide labelling); format: physicochemical; conditions: 10 mM GSSG
Source text: Protein disulfide bond formation was catalyzed by thiol-disulfide exchange with either oxidized glutathione (GSSG) or 2,2′-dipyridyldisulfide. Disulfide bonds were inferred by selectively labelling free Cys with Alexa Fluor 633 C5 maleimide (Invitrogen) and subsequent separation by Tricine SDS-PAGE[50]. Detection is based on both fluorescence and a mobility shift due to the large size of these labels (~ 1.3 kDa each, ~ 2.6 kDa if both cysteines in M88 or M112 react). Ratios of reactants were based on those previously described for saturation labelling. Because the N- and C-terminal tails are susceptible to degradation by trace proteases, leading to band heterogeneity in the gel, core-form versions of M88 and M112 were primarily used for this assay. […] Immediately after the run, fluorescence was measured with excitation by 635 nm laser and emission collected through a 665 nm long-pass filter on a Typhoon FLA 9,500 laser scanner (GE Healthcare).
To measure the time course of disulfide formation, streptavidin muteins were reduced with TCEP which was subsequently removed by centrifugal filtration. […] Fluorescence intensity of each band was quantified using ImageQuant software and the amount off free Cys at each timepoint was determined relative to the initial amount. […]

[5] = cited from earlier work

Row | Substance | tetramer state after heating ([1]; 75 °C, without biotin, 60 min incubation) | denaturation of the tetramer ([1]; 95 °C, 60 min incubation) | decrease in rate of association compared to the reduced form of M88 [2] [fold] | decrease in rate of association compared to wild-type streptavidin [2] [fold] | kon ([2]; B4F, ± standard error) | change in B4F fluorescence (dissociation) ([3]; 25 °C, after 12 h) | rate of dissociation lower than wild-type streptavidin ([3]; 25 °C, extrapolated) [fold] | stability during kinetics measurement ([3]; 90 °C) | rate of dissociation relative to traptavidin ([3]; Arrhenius plot, 25–90 °C) | t1/2 ([3]; B4F, 25 °C, calculated as ln(2)/koff) [years] | koff ([3]; B4F, 25 °C, extrapolated from the Arrhenius plot) | pseudo-first order rate constant of disulfide bond formation ([4]; 21 °C) [h⁻¹] | pseudo-first order rate constant of disulfide bond formation ([4]; 37 °C) [h⁻¹] | increase in rate of dissociation for B4F, oxidized vs reduced M112 ([3]; 25 °C) | time to denature completely ([1]; 75 °C, absence of biotin) [min] | time to complete denaturation ([1]; 95 °C, biotin absent) | melting temperature ([5]; apo-streptavidin) [°C] | state at boiling temperatures ([5]; presence of SDS) | melting temperature ([5]; streptavidin–biotin complex) [°C]
1 | M88 oxidized: M88 (N49C/A86C streptavidin mutein) with the Cys-49/Cys-86 disulfide bond formed | remains tetrameric | no appreciable denaturation | 18.5 | 117 | 4.6 ± 0.3 × 10^5 M^-1 s^-1 | no change in B4F fluorescence measurable | 225 | appeared to be stable | approximately half | 18.3 ± 6.1 | 1.2 ± 0.4 × 10^–9 s^-1 |  |  |  |  |  |  |  | 
2 | M112: streptavidin mutein G26C/A46C with a Cys-26/Cys-46 disulfide bond on the N-terminal side of loop 3–4 |  |  |  |  |  |  |  |  |  |  |  | 0.14 ± 0.02 | 0.41 ± 0.06 | ~ 60 fold |  |  |  |  | 
3 | Wild-type: 66-kDa homotetrameric biotin-binding protein from Streptomyces avidinii; obtained from Bio Basic |  | no appreciable denaturation |  |  |  |  |  |  |  |  |  |  |  |  | ≤ 5 | less than 1 min | 75.5 | remains tetrameric and bound to biotin | 112.2
